Experiments:
[1] = target: Carcinoembryonic antigen (CEA) on CEA positive cells (UniProt P06731); assay: cell-based or functional assay
[2] = target: CD3 on human T cells (human) (UniProt P07766); assay: flow cytometry on T cells coated with 1 µg/mL antibody
Chain of UniProt P07766 (P07766 23-207, chain 1 of 3): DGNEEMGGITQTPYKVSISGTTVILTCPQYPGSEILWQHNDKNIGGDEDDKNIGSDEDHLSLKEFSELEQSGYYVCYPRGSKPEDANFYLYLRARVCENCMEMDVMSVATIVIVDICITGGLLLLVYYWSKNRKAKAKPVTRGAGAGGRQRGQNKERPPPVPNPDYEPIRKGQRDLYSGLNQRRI
Chain of UniProt P07766 (P04234 22-171, chain 2 of 3, further chain): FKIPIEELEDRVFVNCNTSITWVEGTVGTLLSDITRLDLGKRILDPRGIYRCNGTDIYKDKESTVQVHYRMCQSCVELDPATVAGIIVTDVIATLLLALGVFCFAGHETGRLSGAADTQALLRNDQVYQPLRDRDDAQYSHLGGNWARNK
Chain of UniProt P07766 (P09693 23-182, chain 3 of 3, further chain): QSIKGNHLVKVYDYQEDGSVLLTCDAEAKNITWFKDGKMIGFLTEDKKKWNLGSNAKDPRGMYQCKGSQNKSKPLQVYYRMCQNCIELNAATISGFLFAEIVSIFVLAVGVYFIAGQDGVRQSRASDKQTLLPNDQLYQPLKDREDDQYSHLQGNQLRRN

Chain of UniProt P06731 (P06731 35-702): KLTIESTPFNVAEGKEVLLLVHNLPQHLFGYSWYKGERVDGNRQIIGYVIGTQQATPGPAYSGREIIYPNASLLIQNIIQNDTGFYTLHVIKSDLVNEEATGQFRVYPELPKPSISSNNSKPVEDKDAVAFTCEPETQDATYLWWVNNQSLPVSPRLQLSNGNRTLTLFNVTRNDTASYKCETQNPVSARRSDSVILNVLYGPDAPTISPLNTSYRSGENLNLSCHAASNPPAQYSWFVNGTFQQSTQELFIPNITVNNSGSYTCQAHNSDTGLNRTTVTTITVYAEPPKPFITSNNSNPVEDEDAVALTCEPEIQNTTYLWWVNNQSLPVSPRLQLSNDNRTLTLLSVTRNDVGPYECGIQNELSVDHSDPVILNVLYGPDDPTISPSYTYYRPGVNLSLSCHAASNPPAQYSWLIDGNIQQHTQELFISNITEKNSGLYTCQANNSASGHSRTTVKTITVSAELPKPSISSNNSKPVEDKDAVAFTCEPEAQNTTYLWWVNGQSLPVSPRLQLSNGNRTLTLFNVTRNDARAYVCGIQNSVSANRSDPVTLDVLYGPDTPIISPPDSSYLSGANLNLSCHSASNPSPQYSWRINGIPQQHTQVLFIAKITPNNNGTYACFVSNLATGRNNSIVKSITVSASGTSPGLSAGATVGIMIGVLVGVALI

| Substance | redirected cell lysis, T-cells coated with preformed dbBiTEs, E:T 10:1 [1] [%] | redirected cell lysis, on-cell (in situ) generated dbBiTE coated T-cells, E:T 10:1 [1] [%] | percent of cells labelled [2] [%] |
| --- | --- | --- | --- |
| dbBiTE (dual specific bivalent bispecific T-cell engaging antibody: DBCO-hOKT3 clicked to azide-M5A) (bispecific antibody) | 90 | 60 | – |
| DBCO-hOKT3 (humanized anti-human CD3 antibody hOKT3 conjugated to DBCO) | – | – | > 90 |

Source: patent US20220119552A1
